# Data taken from article PMC7589169, “High-Resolution Crystal Structure of Chloroplastic Ribose-5-Phosphate Isomerase from Chlamydomonas reinhardtii—An Enzyme Involved in the Photosynthetic Calvin-Benson Cycle” (International Journal of Molecular Sciences, 2020).
# B1: Chlamydomonas reinhardtii chloroplastic ribose-5-phosphate isomerase 1 (CrRPI1) (enzyme, UniProt A8IRQ1 23-269, looked up)
# chain: MAAPVSTQLSQDELKKQAAWKAVEYVKSGMVVGLGTGSTAAFAVDRIGQLLKEGKLQNIVGVPTSIRTYEQALSLGIPLATLDEQPKLDVAIDGADEVDPNLDVVKGRGGALLREKMVEMASAKFVCIVDDSKLVEGLGGSKLAMPVEIVQFCHKYTLQRLANLPEVKGCEAKLRMNGDKPYVTDNSNYIVDLYFQTPIKDSQAASKAILGLDGVVDHGLFLDMVDVCIIAGATGVTVQERPNPKKH
# notes: residues numbered according to UniProtKB entry A8IRQ1; Theoretical Mw of the recombinant monomer is printed as 27,551 Da; The forward primer introduces an NcoI site at the start codon; source: E. coli BL21(DE3) Rosetta-2 pLysS, purified (NiNTA)
# Experiments:
# [1] = molecular target: the molecule itself; experiment: SEC; purified CrRPI1 on two different gel filtration matrices (Superose 6 increase; BioSEC-3 300), buffer C (20 mM Tris-HCl pH 7.9, 100 mmol/L NaCl); oligomer state from apparent molecular weight
# [2] = molecular target: the molecule itself; experiment: SEC-SAXS; 50 µL of CrRPI1 at 10 mg/mL on BioSEC-3 300 column in buffer C in series with the SAXS capillary (SWING, SOLEIL); molecular weight from scattering, curve fitted to the crystallographic dimer
protein,measurement,setting,value
B1,stoichiometry N,[1],2
same,stoichiometry N,[2],1.78 to 2
